# Measurements: patent publication US7951562B2, “Method for glycosylating hydroxylysine residues in polypeptides or peptides” (Oulun Yliopisto, priority 2000, dated 2011)
# Where “and” joins values, the source holds several entries; their conditions need not be identical. Identical values can stand only once.
# Legend:
# Format in all cases: biochemical
# [1] = system: galactosylhydroxylysyl residues in calf skin gelatin substrate; assay: GGT (glucosyltransferase) activity of recombinant proteins expressed in Sf9 insect cells; conditions: Sf9 cells, 72 hours after infection
# Description: The glucosyltransferase activity can be assayed as described in Myllylä et al. (1975). The method is based on the transfer of radioactively (tritium) labelled glucose from UDP-glucose to galactosylhydroxylysyl residues in calf skin gelatin substrate and on the specific assay of the product of the enzyme reaction after alkaline hydrolysis.
# Commercially available baculovirus transfer vector pFastBacI in the BAC-TO-BAC™ expression system (Life technologies, Inc.) was modified to contain human LH1 signal peptide (Hautala et al., 1992) and His6 tag, and BamHI restriction site for insertion of the desired cDNA, nucleotides 289-2455 of LH3 cDNA (SEQ ID NO 6) (Valtavaara et al., 1998). The construct was confirmed by sequencing. The recombinant protein contains His tag at the amino-terminus after signal peptide cleavage. Insect cells were harvested 0-72 hours after infection and homogenized according to the protocol described earlier (Valtavaara et al., 1997).
# Human LH1 signal peptide and His6 tag was inserted to the cDNA constructs of LH1 and LH2. The baculovirus transfer vector pFastBacI was modified so that human LH1 signal sequence followed by nine nucleotides of the amino-terminal end was ligated to the His6 tag followed by nucleotides for BamHI restriction site. The human cDNA sequence (LH1 or LH2) (SEQ ID NO 21, 23 and 25) starting from the likely amino-terminal end of the molecule was ligated to the BamHI site of the construct. Two expression constructs were generated for LH2, LH2a and LH2b (SEQ ID NO 23 and 25), both of them covered the nucleotides from 76 to 2267 (Valtavaara et al., 1997). The LH2b construct contained also the alternatively spliced exon sequence (Valtavaara 1999; Yeowell and Walker, 1999) between nucleotides 1500 and 1501 (SEQ ID NO 25). The constructs were confirmed by sequencing. Insect cells were grown and homogenized as described above.
# LH activity was assayed by a method based on the hydroxylation-coupled decarboxylation of 2-oxo(1-^14C)glutarate (Kivirikko and Myllylä 1982), synthetic peptide […] was used as a substrate. GGT activity was assayed as described elsewhere (Myllylä et al. 1975). The method is based on the transfer of radioactively (tritium) labelled glucose from UDP-glucose to galactosylhydroxylysyl residues in calf skin gelatin substrate and on the specific assay of the product of the enzyme reaction after alkaline hydrolysis.
# [2] = system: hydroxylysyl residues in a calf skin gelatin substrate; assay: GT (galactosyltransferase) activity of recombinant proteins expressed in E. coli; conditions: E. coli cell supernatant, FIG. 12
# Description: The galactosyltransferase activity can be assayed as described in Myllylä et al. (1975). The method is based on the transfer of radioactively (tritium) labelled galactose from UDP-galactose to hydroxylysyl residues in calf skin gelatin substrate and on the specific assay of the product of the enzyme reaction after alkaline hydrolysis.
# [3] = system: synthetic peptide IKGIKGIKG; assay: LH activity of human LH isoforms expressed in E. coli; conditions: E. coli expression system, data not shown
# Description: The lysyl hydroxylase activity can be assayed by a method based on the hydroxylation-coupled decarboxylation of 2-oxo(1-^14C)glutarate (Kivirikko and Myllylä 1982), synthetic peptide […] was used as a substrate.
# PFastBacI constructs for human LH1, LH2a, LH2b and LH3 were cleaved with BamHI and Hind III restriction enzymes and coding regions were subcloned into same site in E. coli expression vector pQE30 containing (His)6 tag at the amino terminus. Insert for C. elegans LH (corresponding to amino acids 14-730 in cDNA) was generated by PCR and ligated into SacI-PstI site of pOE30 vector. Constructs were transformed into E. coli XL1-Blue strain. Cultures were grown to OD600 of 0.6 at 37° C. Protein expression was induced by adding 1 mM IPTG and incubation was proceed at 30° C. for 5 hours. Cells were harvested and stored at −20° C. For activity measurements cell pellet was suspended to lysis buffer (0.4 M NaCl, 0.5% Nonident and 20 mM Tris-HCl pH 7.8, at 20° C.) and incubated in the presence of lysozyme (50 μg/ml), DNAase (10 μg/ml) and RNAase (10 μg g/ml) at room temperature for 30 minutes. Lysis was completed by sonication. Cell debris was pelleted and supernatant was used in the measurements.
# [4] = system: hydroxylysyl residues in a calf skin gelatin substrate; assay: GT activity of recombinant proteins expressed with baculovirus vector in Sf9 cells; conditions: baculovirus vector in insect cells, not shown
# Method: Baculovirus transfer vector pFastBacI in the BAC-TO-BAC™ expression system was used to produce LH3 protein in Sf9 cells. The cDNA construct is in Example 1. The recombinant protein contains the His tag at the amino terminus after signal peptide cleavage. The cells were homogenized as described elsewhere (Valtavaara et al. 1997).
# GT and GGT activities were measured by a method based on the transfer of radioactively (tritium)-labeled sugar from UDP-sugar to hydroxylysyl or galactosylhydroxylysyl residues in a calf skin gelatin substrate, respectively (Myllylä et al. 1975). The specific detection of the reaction products was performed after alkaline hydrolysis.
# [5] = system: galactosylhydroxylysyl residues in a calf skin gelatin substrate; assay: GGT activity of recombinant proteins expressed in E. coli; conditions: E. coli supernatant, 5 h IPTG induction, stored at −70° C. overnight; listed as LH cDNA
Molecule,GGT activity in cell lysates [1],generation of GT activity [2],LH activity [3],generation of GT activity [4],GGT enzyme activity [5]
"LH2b: recombinant human lysyl hydroxylase isoform 2, alternatively spliced form b (protein, listed as Homo sapiens, His6 tag; CDS (1)..(2277), recombinant human lysyl hydroxylase isoform 2, alternatively spliced form b) MGGCTVKPQLLLLALVLHPWNPCLGADSEKPSSIPTDKLLVITVATKESDGFHRFMQSAKYFNYTVKVLGQGEEWRGGDGINSIGGGQKVRLMKEVMEHYADQDDLVVMFTECFDVIFAGGPEEVLKKFQKANHKVVFAADGILWPDKRLADKYPVVHIGKRYLNSGGFIGYAPYVNRIVQQWNLQDNDDDQLFYTKVYIDPLKREAINITLDHKCKIFQTLNGAVDEVVLKFENGKARAKNTFYETLPVAINGNGPTKILLNYFGNYVPNSWTQDNGCTLCEFDTVDLSAVDVHPNVSIGVFIEQPTPFLPRFLDILLTLDYPKEALKLFIHNKEVYHEKDIKVFFDKAKHEIKTIKIVGPEENLSQAEARNMGMDFCRQDEKCDYYFSVDADVVLTNPRTLKILIEQNRKIIAPLVTRHGKLWSNFWGALSPDGYYARSEDYVDIVQGNRVGVWNVPYMANVYLIKGKTLRSEMNERNYFVRDKLDPDMALCRNAREMTLQREKDSPTPETFQMLSPPKGVFMYISNRHEFGRLLSTANYNTSHYNNDLWQIFENPVDWKEKYINRDYSKIFTENIVEQPCPDVFWFPIFSEKACDELVEEMEHYGKWSGGKHHDSRISGGYENVPTDDIHMKQVDLENVWLDFIREFIAPVTLKVFAGYYTKGFALLNFVVKYSPERQRSLRPHHDASTFTINIALNNVGEDFQGGGCKFLRYNCSIESPRKGWSFMHPGRLTHLHEGLPVKNGTRYIAVSFIDP",none of these recombinant proteins had detectable GGT activity,LH3 was the only one being able to generate GT activity,no LH activity can be found,did not generated GT activity,
"C. elegans LH: protein produced from Caenorhabditis elegans lysyl hydroxylase cDNA (amino acids 14-730) (protein, Caenorhabditis elegans) LLATTITDLPELVVVTVATENTDGLKRLLESAKAFDINIEVLGLGEKWNGGDTRIEQGGGQKIRILSDWIEKYKDASDTMIMFVDAYDVVFNADSTTILRKFFEHYSEKRLLFGAEPFCWPDQSLAPEYPIVEFGKRFLNSGLFMGYGPEMHKILKLKSVEDKDDDQLYYTMIYLDEKLRKELNMDLDSMSKIFQNLNGVIEDVELQFKEDGTPEAYNAAYNTKPLIVHGNGPSKSHLNYLGNYLGNRWNSQLGCRTCGLEVKESEEVPLIALNLFISKPIPFIEEVLQKIAEFDYPKEKIALYIYNNQPFSIKNIQDFLQKHGKSYYTKRVINGVTEIGDREARNEAIEWNKARNVEFAFLMDGDAYFSEPKVIKDLIQYSKTYDVGIIAPMIGQPGKLFTNFWGAIAANGYYARSEDYMAIVKGNRVGYWNVPFITSAVLFNKEKLEAMKDAYSYNKNLDPDMSMCKFARDNGHFLYIDNEKYYGFLIVSDEYAETVTEGKWHPEMWQIFENRELWEARYIHPGYHKIMEPEHVVDQACPDVYDFPLMSERFCEELIEEMEGFGRWSDGSNNDKRLAGGYENVPTRDIHMNQVGFERQWLYFMDTYVRPVQEKTFIGYYHQPVESNMMFVVRYKPEEQPSLRPHHDASTFSIDIALNKKGRDYEGGGVRYIRYNCTVPADEVGYAMMFPGRLTHLHEGLATTKGTRYIMVSFINP",,,,,30.700 dpm/mg soluble protein and 21.000 dpm/mg soluble protein
